Data published in article PMC1905944.
“And” between values parts separate entries of the source, which are not always exact repeats. Equal values may be shown once.

Assays:
[1] = target: full-length HIV-1 WT integrase (HIV-1); experiment: cross-linking; IN (5 pmol, 0.5 uM) with the 5'-radiolabelled 38-bp PalA/PalB duplex (1 pmol, 0.1 uM; HIV-1 LTR-LTR junction) and AHDAP 300 uM, 0.05% NP40, 10 mM DTT, 20 mM HEPES pH 7.5, 37 C in the dark, 0 to 60 min; SDS-PAGE and autoradiography; IN oligomers seen bound to DNA
[2] = target: full-length HIV-1 WT integrase (HIV-1); experiment: cross-linking + SEC; covalent IN oligomers made by chemical cross-linking and separated by size-exclusion chromatography, as previously described [10]; dimers and tetramers recovered

Question: Which stoichiometry N [1] does the source give for full-length HIV-1 WT integrase (enzyme) here?
Answer: 2 and 4

Question: And the stoichiometry N [2]?
Answer: 2 and 4
